Read-outs that look alike come from different tables or passages of the source.
Key:
[1] = target: T1, human complement factor D purified from serum (human, UniProt P00746 26-253); as to CFD Enzymatic activity (% of Neg Ctrl): test concentration or dose not given here
T1 construct: serum-purified (CompTech); also called hCFD-Comptech; CFD

[2] = target: T1, human complement factor D purified from …; test: cell-based or functional assay
[3] = target: T2, recombinant human CFD mutant 1 (R157A, R207A), His-tagged (human, UniProt P00746 26-253); test: ELISA
T2 construct: positions are linear positions in the mature protein; also called rhCFD-mut1-His; Mut1
T2 sequence (P00746 26-253 R182A/R232A limits assumed): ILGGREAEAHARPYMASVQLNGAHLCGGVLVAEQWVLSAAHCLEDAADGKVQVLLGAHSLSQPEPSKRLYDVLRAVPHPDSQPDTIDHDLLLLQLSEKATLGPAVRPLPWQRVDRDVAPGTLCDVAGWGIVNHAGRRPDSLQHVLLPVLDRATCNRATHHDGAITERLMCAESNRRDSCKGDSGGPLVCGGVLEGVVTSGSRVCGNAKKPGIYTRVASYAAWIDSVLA

[4] = target: T2, recombinant human CFD mutant 1 (R157A, …); test: SPR MX96
[5] = target: T3, recombinant human CFD, His-tagged (human, UniProt P00746 26-253); test: SPR MX96
T3 construct: also called rhCFD-His
T3 sequence (P00746 26-253 limits assumed): as the sequence (P00746 26-253 R182A/R232A limits assumed) above, with A157R, A207R counted along it

[6] = target: T4, recombinant cynomolgus CFD, His-tagged (cynomolgus); test: SPR MX96
T4 construct: also called rcyCFD-His; recombinant Cyno-CFD

[7] = target: T1, human complement factor D purified from …; test: SPR MX96
[8] = target: T2, recombinant human CFD mutant 1 (R157A, …); test: ELISA; remark: listed apart in the source
[9] = target: T1, human complement factor D purified from …; remark: listed apart in the source
[10] = target: T1, human complement factor D purified from …; test: cell-based or functional assay; remark: listed apart in the source

T1 sequence (P00746 26-253): as the sequence (P00746 26-253 R182A/R232A limits assumed) above, with A157R, A207R counted along it

Binder | Kd [1] [nM] | CFD Enzymatic activity (% of Neg Ctrl) [2] | Mut1 Binding (% wt) [3] [% wt] | Kd [4] [nM] | Kd [5] [nM] | Kd [6] [nM] | Kd [7] [nM] | Mut1 Binding (% wt) [8] [% wt] | Kd [9] [nM] | CFD Enzymatic activity (% of Neg Ctrl) [10]
KCD042 (antibody, V domains shown, chimeric) VH: EVQLQQSGAELVKPGASVRLSCTASGFNIKHTYIHWVSQRPEQGLEWIGKIDPANGNTKYDPKFQGKATITADTSSNTAYLQLSSLTSEDTAVYYCVNAMEYWGQGTSVTVSS VL: QSVLTQSPAIMSASPGEKVTMTCSANSSVSDMYWFQQRPGSSPRLLIYDTSNLASGVPVRFSGSGSGTSYSLTISRMEAEDAATYYCQQWSTYPWTFGGGTKLEIK | 1.09 | 6.8 % of Neg Ctrl | 65.6 | 0.42 | 1 | 3 | 1.4 | – | – | –
KCD047 (antibody, V domains shown, chimeric) VH: EVQLQQSGAEFVKPGASVRLSCTASGFNIKDTYMHWVKQRPEQGLEWIGRIDPANGYTKDDPKFQGKATITADTSSNTAYLQLSSLTSEDTAVYYCASAMDYWGQGTSVTVSS VL: QIVLTQSPAVMSASPGEKVAMTCSASSSVTYMYWYQQKPGSSPRLLIYDTSNLASGVPVRFSGSGSGTSYSLTISRMEAEDAATYYCQQWSTYPFPFGSGTKLEIK | 6.62 | 47.3 % of Neg Ctrl | 58.9 | 2.9 | 3.4 | 160 | 4.4 | – | – | –
KCD136 (antibody, V domains shown, chimeric) VH: EVQLQQSVAELVRPGASVKLSCSASGFNIKNTYMHWVNQRPEQGLEWIGRIDPANGITKYAPNFQGKATITADTSSNTAYLQLSNLTSEDTAIYYCTRAMDYWGQGTSVTVSS VL: QIVLTQSPAIMSASPGEKVTMTCSASSSVSYMYWYQQKPGSSPRLLIYDISNLASGVPVRFSGSGSGTSYSLTISRMEAEDAATYYCQQWDTYPWTFGGGTKLEIK | 0.587 | 11.8 % of Neg Ctrl | 78.3 | 1.4 | 3.4 | 27 | 4.5 | – | – | –
KCD208 (antibody, V domains shown, chimeric) VH: EVQLQQSVAELVRPGASVKLSCTVSGFNIKNTYMHWVKQRPEQGLEWIGRIDPANGDTTYAPKFQGKATITADTSSNSAYLHLSRLTSEDTAIYYCSLYDYDGYWGQGTTLTVSS VL: EIVLTQSPALMAASPGEKVTITCSVSSSISSSSLHWYRQKSGTSPKPWIYGTSHLASGVPVRFSGSGSGTSYSLTISSMEAEDAATYYCQQWDTYPWTFGGGTKLEIK | 0.451 | 0 % of Neg Ctrl | 56.7 | 1.8 | 1.9 | 52 | 2.5 | – | – | –
KCD214 (antibody, V domains shown, chimeric) VH: EVQLQQSVAEFVRPGASVKLSCTASGFNIKNTYMHWVKQRPEQGLEWIGRIDPANGNTEYAPKFQGKATITADTSSNTAYLQLSSLTSEDTAIYYCALYDYDGYWGQGTTLTVSS VL: EIVLTQSPALMAASPGEKVTITCRVSSSISSSSLHWYQQKSGTSPKPWIYGTSNLASGVPVRFSGSRSGTSYSLTISSMEAEDAATYYCQQWSDYPWTFGGGTKLEIK | 0.245 | 12.8 % of Neg Ctrl | 44.3 | 1.3 | 1.1 | 26 | 1.6 | – | – | –
KCD220 (antibody, V domains shown, chimeric) VH: QVQLQQSGAELMEPGASVKLSCKATGYTFTGYWIEWVKQRPGHGLEWIGETLPGSDSNNYNEKFKGKATFTADTSSNTAYMQLSSLTTEDSAIYYCARDYSNYWYFDVWGTGTTVTVSS VL: DIQMTQTTSSLSASLGDRVTISCRASQDISNYLNWYQQKPDGTVKLLIYYTSNLHSGVPSRFSGSGSGTDYSLTISNLEQEDIATYFCQQDSKHRTFGGGTKLEIK | – | – | – | 0.029 | 0.074 | 0.28 | 0.054 | 74.1 | 0.0639 | 88.1 % of Neg Ctrl
KCD131 (antibody, V domains shown, chimeric) VH: QVQLQQSGPELVKPGASVKISCKASAYTFTDYYINWVKQRPGQGPEWIGWIFPGSNSTYSNEKFEVKATLTVDESSSTAYMLLSSLTSEDSAVYFCARLGYFGSSYHALDYWGQGTSVTVSS VL: DIQMTQSPASLSVSVGETVTITCRASENIYSHLAWFQQKQGKSPRLLVYSATNLPDGVPSRFSGSGSGTQYSLKINILQSEDFGSYYCQHFWGTPWTFGGGTKLEIK | – | – | – | 0.045 | 0.047 | 0.99 | 0.14 | 80.7 | 0.0342 | 65.9 % of Neg Ctrl
KCD224 (antibody, V domains shown, chimeric) VH: QVQLKESGPGLVAPSQSLSITCTVSGFSLTSYGVDWIRQSPGKGLEWLGVIWGVGSTNYNSALKSRLSISKDNSKSQVFLKMNSLQTDDTAMYYCARSYDGSYWYFDVWGTGTTVTVSS VL: DIQMTQTTSSLSASLGDRVTISCRASQVISNYLNWYQQKPDGTVKLLIYYTSRLHSGVPSRFSGSGSGTDYSLTISNLEPEDIATYYCQQYSKLPYTFGSGTKLEIK | 0.0156 | 36.3 % of Neg Ctrl | 121 | 1.1 | 0.54 | 100 | 1.2 | – | – | –
KCD102 (antibody, V domains shown, chimeric) VH: QVQLQQPGAELVRPGTSVKLSCKASGYTFTSYWMHWVKQRPGQGLEWIGVIDPSDSYTNYNQKFKGKATLTVDTSSSTAYMQLSSLTSEDSAVYYCARNGYDGSMDYWGQGTSVTVSS VL: EIQMTQTTSSLSASLGDRVTISCRASQDISNYLNWYQQKPDGTVKLLIYYPSRLHSGVPSRFSGSGSGTDYSLTISNLEQEDFATYFCQQGNTLPYTFGGGTKLEIK | – | – | – | 2.5 | 2.5 | 230 | 3.6 | 64.3 | 6.98 | 92.3 % of Neg Ctrl
KCD104 (antibody, V domains shown, chimeric) VH: QVQLQQPGAELVRPGTSVKLSCKASGYTFTSYWMHWVKQRPGQGLEWIGVIDPSDSYTYYNQKFKGKATLTVDTSSSTAYMQLSSLTSEDSAVYYCARNGYDGAMDYWGQGTSVTVSS VL: EIQMTQTTSSLSASLGDRVTISCRASQDISNYLNWYQQKPDGTVKLLIYYPSRLHSGVPSRFSGSGSGTDYSLTISNLEQEDFATYFCQQGNTLPYTFGGGTKLEIK | – | – | – | 0.82 | 1.2 | 72 | 1.6 | 68.3 | 1.32 | 92.3 % of Neg Ctrl

Continued, values first:

Kd [1] [nM] | CFD Enzymatic activity (% of Neg Ctrl) [2] | Mut1 Binding (% wt) [3] [% wt] | Kd [4] [nM] | Kd [5] [nM] | Kd [6] [nM] | Kd [7] [nM] | Mut1 Binding (% wt) [8] [% wt] | Kd [9] [nM] | CFD Enzymatic activity (% of Neg Ctrl) [10] | Binder
79.1 | 13.7 % of Neg Ctrl | 62.2 | 0.75 | 1.4 | 170 | 1.9 | – | – | – | KCD040 (antibody, V domains shown, chimeric) VH: EVQLQQSGAELVKPGASVKLSCTASDFNIKDTYMHWVMQRPEQGLEWIGKIDPANGNTEFDPKFQGKATITADTSSNTAYLQLTSLTSEDTAVYYCTRAMDYWGQGTSVTVSS VL: QIVLTQSPAIMSASPGEKVTMTCSAGSSVSYMYWYQQKPGSSPRVLIYDTSNLASGVPVRFSGSGSGTSYSLTISRMEAEDAATYYCQQWSNYPYTFGGGTKLEIK
1.02 | 8.8 % of Neg Ctrl | 62.5 | 0.96 | 1.8 | 6 | 2.6 | – | – | – | KCD044 (antibody, V domains shown, chimeric) VH: EVQLQQSGAELVKPGASVRLSCTASGFNIKHTYMHWVSQRPERGLEWIGKIDPANGNTKYDPKFQGKATITADTSSNTVYLQLSSLTSEDTAVYYCLNAMEYWGQGTSVTVSS VL: QSVLTQSPAIMSASPGEKVTMTCSANSSVSDMYWYQQRPGSSPRLLIYDTSNLASGVPVRFSGSGSGTSYSLTISRMEAEDAATYYCQQWSTYPWTFGGGTKLEIK
– | – | – | 0.08 | 0.11 | 0.41 | 0.13 | 71.2 | 0.0307 | 144 % of Neg Ctrl | KCD002 (antibody, V domains shown, chimeric) VH: EVKLVESEGGLVQPGSSMKLSCTASGFTFSDYYMAWVRQVPEKGLEWVGNINYDGSSTYYLDSLKSRFIISRDSAKNILYLQMSSLKSEDTATYFCARGEDFYLYAMDYWGQGTSVTVSS VL: DIQMTQSPASLSASVGETVTITCRASENIHSYLAWYQQKQGKSPQLIVYNTKTLAEGVPSRFSGSGSGTQFSLKINSLQPEDFGSYYCQHHYGIPPTFGGGTKLEIK
– | – | – | 2.8 | 2.7 | 240 | 3.8 | 65.8 | 1.45 | 93.2 % of Neg Ctrl | KCD101 (antibody, V domains shown, chimeric) VH: QVQLQQPGAELVRPGTSVKLSCKASGYTFTSYWMHWVKQRPGQGLEWIGVIDPSDSYTNYNQKFKGKATLTVDTSSSTAYMQLSSLTSEDSAVYYCGRNGYDGSMDYWGQGTSVTVSS VL: DIQMTQTTSSLSASLGDRVTISCRASQDISNYLNWYQQKPDGTVKLLIYYPSRLHSGVPSRFSGSGSGTDYSLTISNLEQEDFATYFCQQGNTLPYTFGGGTKLEIK
– | – | – | 2.5 | 3.1 | 63 | 4.4 | 65.2 | 1.48 | 126 % of Neg Ctrl | KCD103 (antibody, V domains shown, chimeric) VH: QVQLQQPGAELVRPGTSVKLSCKASGYTFTSYWMHWVKQRPGQGLEWIGVIDPSDSYTKYNQKFKDKATLTVETSSSTAYMQLSSLTSEDSAVYYCAGNGYDGSMDYWGQGTSVTVSS VL: DIQMTQTTSSLSASLGDRVTISCRASQDISNSLNWYQQKPDGTVKLLIYYTSRLHSRVPSRFSGSGSGTDYSLTISNLDQEDIATYFCQQANTLPYTFGGGTKLEIK
